Measurements from the supplement of paper PMC11316812.
± gives the standard deviation of the averaged measurements.

Experiments:
MCF7 = test: percentage of EdU-negative (G0-arrested) nuclei per well, 72 h; higher = more G0 arrest; settings: reference: sequence is the full UniProt precursor, the tested protein was the secreted form or ectodomain
hTERT-HMEC = test: as above; settings: reference: sequence is the full UniProt precursor, the tested protein was the secreted form or ectodomain
[1] = protein concentration 0.0075 µM
[2] = protein concentration 0.0102857 µM
[3] = protein concentration 0.102857 µM
[4] = protein concentration 0.0225 µM
[5] = protein concentration 0.0307925 µM
[6] = protein concentration 0.307925 µM
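Note: secreted proteins added to cultured cells, EdU pulse at the end, nuclei found by Hoechst imaging, EdU status from nuclear versus surrounding ring intensity ratio, PBS as neutral control.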

Sequence	percentage of EdU-negative (MCF7; [4])	percentage of EdU-negative (MCF7; protein concentration 0.225 µM)	percentage of EdU-negative (hTERT-HMEC; [4])	percentage of EdU-negative (hTERT-HMEC; protein concentration 0.225 µM)	also measured
MACWWPLLLELWTVMPTWAGDELLNICMNAKHHKRVPSPEDKLYEECIPWKDNACCTLTTSWEAHLDVSPLYNFSLFHCGLLMPGCRKHFIQAICFYECSPNLGPWIQPVGSLGWEVAPSGQGERVVNVPLCQEDCEEWWEDCRMSYTCKSNWRGGWDWSQGKNRCPKGAQCLPFSHYFPTPADLCEKTWSNSFKASPERRNSGRCLQKWFEPAQGNPNVAVARLFASSAPSWELSYTIMVCSLFLPFLS [A6ND01]					percentage of EdU-negative (MCF7; [1]): 24.06 ± 0.21%; percentage of EdU-negative (MCF7; protein concentration 0.075 µM): 25.05 ± 0.12%; percentage of EdU-negative (hTERT-HMEC; [1]): 5.08 ± 0.06%; percentage of EdU-negative (hTERT-HMEC; protein concentration 0.075 µM): 7.68 ± 0.15%
MADKVRRQRPRRRVCWALVAVLLADLLALSDTLAVMSVDLGSESMKVAIVKPGVPMEIVLNKESRRKTPVIVTLKENERFFGDSAASMAIKNPKATLRYFQHLLGKQADNPHVALYQARFPEHELTFDPQRQTVHFQISSQLQFSPEEVLGMVLNYSRSLAEDFAEQPIKDAVITVPVFFNQAERRAVLQAARMAGLKVLQLINDNTATALSYGVFRRKDINTTAQNIMFYDMGSGSTVCTIVTYQMVKTKEAGMQPQLQIRGVGFDRTLGGLEMELRLRERLAGLFNEQRKGQRAKDVRENPRAMAKLLREANRLKTVLSANADHMAQIEGLMDDVDFKAKVTRVEFEELCADLFERVPGPVQQALQSAEMSLDEIEQVILVGGATRVPRVQEVLLKAVGKEELGKNINADEAAAMGAVYQAAALSKAFKVKPFVVRDAVVYPILVEFTREVEEEPGIHSLKHNKRVLFSRMGPYPQRKVITFNRYSHDFNFHINYGDLGFLGPEDLRVFGSQNLTTVKLKGVGDSFKKYPDYESKGIKAHFNLDESGVLSLDRVESVFETLVEDSAEEESTLTKLGNTISSLFGGGTTPDAKENGTDTVQEEEESPAEGSKDEPGEQVELKEEAEAPVEDGSQPPPPEPKGDATPEGEKATEKENGDKSEAQKPSEKAEAGPEGVAPAPEGEKKQKPARKRRMVEEIGVELVVLDLPDLPEDKLAQSVQKLQDLTLRDLEKQEREKAANSLEAFIFETQDKLYQPEYQEVSTEEQREEISGKLSAASTWLEDEGVGATTVMLKEKLAELRKLCQGLFFRVEERKKWPERLSALDNLLNHSSMFLKGARLIPEMDQIFTEVEMTTLEKVINETWAWKNATLAEQAKLPATEKPVLLSKDIEAKMMALDREVQYLLNKAKFTKPRPRPKDKNGTRAEPPLNASASDQGEKVIPPAGQTEDAEPISEPEKVETGSEPGDTEPLELGGPGAEPEQKEQSTGQKRPLKNDEL [Q9Y4L1]					percentage of EdU-negative (MCF7; [2]): 23.6 ± 1.2%; percentage of EdU-negative (MCF7; [3]): 30.4 ± 1.7%; percentage of EdU-negative (hTERT-HMEC; [2]): 6.45 ± 1.3%; percentage of EdU-negative (hTERT-HMEC; [3]): 35.3 ± 5.6%
MAEAKTHWLGAALSLIPLIFLISGAEAASFQRNQLLQKEPDLRLENVQKFPSPEMIRALEYIENLRQQAHKEESSPDYNPYQGVSVPLQQKENGDESHLPERDSLSEEDWMRIILEALRQAENEPQSAPKENKPYALNSEKNFPMDMSDDYETQQWPERKLKHMQFPPMYEENSRDNPFKRTNEIVEEQYTPQSLATLESVFQELGKLTGPNNQKRERMDEEQKLYTDDEDDIYKANNIAYEDVVGGEDWNPVEEKIESQTQEEVRDSKENIEKNEQINDEMKRSGQLGIQEEDLRKESKDQLSDDVSKVIAYLKRLVNAAGSGRLQNGQNGERATRLFEKPLDSQSIYQLIEISRNLQIPPEDLIEMLKTGEKPNGSVEPERELDLPVDLDDISEADLDHPDLFQNRMLSKSGYPKTPGRAGTEALPDGLSVEDILNLLGMESAANQKTSYFPNPYNQEKVLPRLPYGAGRSRSNQLPKAAWIPHVENRQMAYENLNDKDQELGEYLARMLVKYPEIINSNQVKRVPGQGSSEDDLQEEEQIEQAIKEHLNQGSSQETDKLAPVSKRFPVGPPKNDDTPNRQYWDEDLLMKVLEYLNQEKAEKGREHIAKRAMENM					percentage of EdU-negative (MCF7; protein concentration 0.006 µM): 26.9 ± 0.33%; percentage of EdU-negative (MCF7; protein concentration 0.06 µM): 27.1 ± 1.7%; percentage of EdU-negative (hTERT-HMEC; protein concentration 0.006 µM): 5.24 ± 0.54%; percentage of EdU-negative (hTERT-HMEC; protein concentration 0.06 µM): 5.44 ± 0.097%
MAEGNTLISVDYEIFGKVQGVFFRKHTQAEGKKLGLVGWVQNTDRGTVQGQLQGPISKVRHMQEWLETRGSPKSHIDKANFNNEKVILKLDYSDFQIVK [G3V2U7]	24.4 ± 1.6%	25.9 ± 3.2%	4.35 ± 0.4%	5.31 ± 0.75%	
MAESAGASSFFPLVVLLLAGSGGSGPRGVQALLCACTSCLQANYTCETDGACMVSIFNLDGMEHHVRTCIPKVELVPAGKPFYCLSSEDLRNTHCCYTDYCNRIDLRVPSGHLKEPEHPSMWGPVELVGIIAGPVFLLFLIIIIVFLVINYHQRVYHNRQRLDMEDPSCEMCLSKDKTLQDLVYDLSTSGSGSGLPLFVQRTVARTIVLQEIIGKGRFGEVWRGRWRGGDVAVKIFSSREERSWFREAEIYQTVMLRHENILGFIAADNKDNGTWTQLWLVSDYHEHGSLFDYLNRYTVTIEGMIKLALSAASGLAHLHMEIVGTQGKPGIAHRDLKSKNILVKKNGMCAIADLGLAVRHDAVTDTIDIAPNQRVGTKRYMAPEVLDETINMKHFDSFKCADIYALGLVYWEIARRCNSGGVHEEYQLPYYDLVPSDPSIEEMRKVVCDQKLRPNIPNWWQSYEALRVMGKMMRECWYANGAARLTALRIKKTLSQLSVQEDVKI	25.1 ± 0.54%	25.3 ± 3.2%	5.48 ± 0.32%	6.41 ± 1.6%	
MAFAWWPCLILALLSSLAASGFPRSPFRLLGKRSLPEGVANGIEVYSTKINSKVTSRFAHNVVTMRAVNRADTAKEVSFDVELPKTAFITNFTLTIDGVTYPGNVKEKEVAKKQYEKAVSQGKTAGLVKASGRKLEKFTVSVNVAAGSKVTFELTYEELLKRHKGKYEMYLKVQPKQLVKHFEIEVDIFEPQGISMLDAEASFITNDLLGSALTKSFSGKKGHVSFKPSLDQQRSCPTCTDSLLNGDFTITYDVNRESPGNVQIVNGYFVHFFAPQGLPVVPKNVAFVIDISGSMAGRKLEQTKEALLRILEDMQEEDYLNFILFSGDVSTWKEHLVQATPENLQEARTFVKSMEDKGMTNINDGLLRGISMLNKAREEHRIPERSTSIVIMLTDGDANVGESRPEKIQENVRNAIGGKFPLYNLGFGNNLNYNFLENMALENHGFARRIYEDSDADLQLQGFYEEVANPLLTGVEMEYPENAILDLTQNTYQHFYDGSEIVVAGRLVDEDMNSFKADVKGHGATNDLTFTEEVDMKEMEKALQERDYIFGNYIERLWAYLTIEQLLEKRKNAHGEEKENLTARALDLSLKYHFVTPLTSMVVTKPEDNEDERAIADKPGEDAEATPVSPAMSYLTSYQPPQNPYYYVDGDPHFIIQIPEKDDALCFNIDEAPGTVLRLIQDAVTGLTVNGQITGDKRGSPDSKTRKTYFGKLGIANAQMDFQVEVTTEKITLWNRAVPSTFSWLDTVTVTQDGLSMMINRKNMVVSFGDGVTFVVVLHQVWKKHPVHRDFLGFYVVDSHRMSAQTHGLLGQFFQPFDFKVSDIRPGSDPTKPDATLVVKNHQLIVTRGSQKDYRKDASIGTKVVCWFVHNNGEGLIDGVHTDYIVPNLF	26.1 ± 2.2%	27.2 ± 3.3%	4.75 ± 1%	6.22 ± 0.29%	
MAFDVSCFFWVVLFSAGCKVITSWDQMCIEKEANKTYNCENLGLSEIPDTLPNTTEFLEFSFNFLPTIHNRTFSRLMNLTFLDLTRCQINWIHEDTFQSHHQLSTLVLTGNPLIFMAETSLNGPKSLKHLFLIQTGISNLEFIPVHNLENLESLYLGSNHISSIKFPKDFPARNLKVLDFQNNAIHYISREDMRSLEQAINLSLNFNGNNVKGIELGAFDSTIFQSLNFGGTPNLSVIFNGLQNSTTQSLWLGTFEDIDDEDISSAMLKGLCEMSVESLNLQEHRFSDISSTTFQCFTQLQELDLTATHLKGLPSGMKGLNLLKKLVLSVNHFDQLCQISAANFPSLTHLYIRGNVKKLHLGVGCLEKLGNLQTLDLSHNDIEASDCCSLQLKNLSHLQTLNLSHNEPLGLQSQAFKECPQLELLDLAFTRLHINAPQSPFQNLHFLQVLNLTYCFLDTSNQHLLAGLPVLRHLNLKGNHFQDGTITKTNLLQTVGSLEVLILSSCGLLSIDQQAFHSLGKMSHVDLSHNSLTCDSIDSLSHLKGIYLNLAANSINIISPRLLPILSQQSTINLSHNPLDCTCSNIHFLTWYKENLHKLEGSEETTCANPPSLRGVKLSDVKLSCGITAIGIFFLIVFLLLLAILLFFAVKYLLRWKYQHI	27.1 ± 4.8%	29.8 ± 3.2%	5.21 ± 0.11%	7.06 ± 0.86%	
MAFLGLFSLLVLQSMATGATFPEEAIADLSVNMYNRLRATGEDENILFSPLSIALAMGMMELGAQGSTQKEIRHSMGYDSLKNGEEFSFLKEFSNMVTAKESQYVMKIANSLFVQNGFHVNEEFLQMMKKYFNAAVNHVDFSQNVAVANYINKWVENNTNNLVKDLVSPRDFDAATYLALINAVYFKGNWKSQFRPENTRTFSFTKDDESEVQIPMMYQQGEFYYGEFSDGSNEAGGIYQVLEIPYEGDEISMMLVLSRQEVPLATLEPLVKAQLVEEWANSVKKQKVEVYLPRFTVEQEIDLKDVLKALGITEIFIKDANLTGLSDNKEIFLSKAIHKSFLEVNEEGSEAAAVSGMIAISRMAVLYPQVIVDHPFFFLIRNRRTGTILFMGRVMHPETMNTSGHDFEEL					percentage of EdU-negative (MCF7; [5]): 22.8 ± 1.4%; percentage of EdU-negative (MCF7; [6]): 27.7 ± 2.1%; percentage of EdU-negative (hTERT-HMEC; [5]): 4.97 ± 0.78%; percentage of EdU-negative (hTERT-HMEC; [6]): 49.1 ± 2.1%
MAFLPSWVCVLVGSFSASLAGTSNLSETEPPLWKESPGQLSDYRVENSMYIINPWVYLERMGMYKIILNQTARYFAKFAPDNEQNILWGLPLQYGWQYRTGRLADPTRRTNCGYESGDHMCISVDSWWADLNYFLSSLPFLAAVDSGVMGISSDQVRLLPPPKNERKFCYDVSSCRSSFPETMNKWNTFYQYLQSPFSKFDDLLKYLWAAHTSTLADNIKSFEDRYDYYSKAEAHFERSWVLAVDHLAAVLFPTTLIRSYKFQKGMPPRILLNTDVAPFISDFTAFQNVVLVLLNMLDNVDKSIGYLCTEKSNVYRDHSESSSRSYGNNS [Q6P5S2]	25.7 ± 0.86%	26.6 ± 0.54%	4.92 ± 0.16%	5.82 ± 0.65%	
MAFPPRRRLRLGPRGLPLLLSGLLLPLCRAFNLDVDSPAEYSGPEGSYFGFAVDFFVPSASSRMFLLVGAPKANTTQPGIVEGGQVLKCDWSSTRRCQPIEFDATGNRDYAKDDPLEFKSHQWFGASVRSKQDKILACAPLYHWRTEMKQEREPVGTCFLQDGTKTVEYAPCRSQDIDADGQGFCQGGFSIDFTKADRVLLGGPGSFYWQGQLISDQVAEIVSKYDPNVYSIKYNNQLATRTAQAIFDDSYLGYSVAVGDFNGDGIDDFVSGVPRAARTLGMVYIYDGKNMSSLYNFTGEQMAAYFGFSVAATDINGDDYADVFIGAPLFMDRGSDGKLQEVGQVSVSLQRASGDFQTTKLNGFEVFARFGSAIAPLGDLDQDGFNDIAIAAPYGGEDKKGIVYIFNGRSTGLNAVPSQILEGQWAARSMPPSFGYSMKGATDIDKNGYPDLIVGAFGVDRAILYRARPVITVNAGLEVYPSILNQDNKTCSLPGTALKVSCFNVRFCLKADGKGVLPRKLNFQVELLLDKLKQKGAIRRALFLYSRSPSHSKNMTISRGGLMQCEELIAYLRDESEFRDKLTPITIFMEYRLDYRTAADTTGLQPILNQFTPANISRQAHILLDCGEDNVCKPKLEVSVDSDQKKIYIGDDNPLTLIVKAQNQGEGAYEAELIVSIPLQADFIGVVRNNEALARLSCAFKTENQTRQVVCDLGNPMKAGTQLLAGLRFSVHQQSEMDTSVKFDLQIQSSNLFDKVSPVVSHKVDLAVLAAVEIRGVSSPDHVFLPIPNWEHKENPETEEDVGPVVQHIYELRNNGPSSFSKAMLHLQWPYKYNNNTLLYILHYDIDGPMNCTSDMEINPLRIKISSLQTTEKNDTVAGQGERDHLITKRDLALSEGDIHTLGCGVAQCLKIVCQVGRLDRGKSAILYVKSLLWTETFMNKENQNHSYSLKSSASFNVIEFPYKNLPIEDITNSTLVTTNVTWGIQPAPMPVPVWVIILAVLAGLLLLAVLVFVMYRMGFFKRVRPPQEEQEREQLQPHENGEGNSET					percentage of EdU-negative (MCF7; [1]): 25.7 ± 3.1%; percentage of EdU-negative (MCF7; protein concentration 0.075 µM): 28.8 ± 2%; percentage of EdU-negative (hTERT-HMEC; [1]): 5.23 ± 0.5%; percentage of EdU-negative (hTERT-HMEC; protein concentration 0.075 µM): 7.03 ± 1%
